Test results published in publication PMC9569990 (International Journal of Molecular Sciences, 2022).
Positions count from the first letter of the chain named. Numbers in names are those of the source. Each block holds one binder with its values, some of them ahead of it.

Assays:
Experiment in all cases: SPR; cytokine immobilised on ProteOn GLH sensor chip by amine coupling (9,000-14,000 RU); S100P (wild type or mutant) as analyte, 62 nM-16 µM; 25 °C; 10 mM HEPES, 150 mM NaCl, 1 mM CaCl2, 0.05% TWEEN 20, pH 7.4; heterogeneous ligand model (two ligand populations), one-site model for IL-13; values averaged over analyte concentrations (n = 3-5)
Conditions in all cases: both partners purified
Somatotropin = molecular target: T1, Somatotropin (human, UniProt P01241 27-217)
T1 construct: Somatotropin (growth hormone), human, UniProt P01241; see the manufacturer's catalogue number; also called GH; growth hormone; source: bought: PeproTech (source E. coli)
T1 sequence (P01241 27-217): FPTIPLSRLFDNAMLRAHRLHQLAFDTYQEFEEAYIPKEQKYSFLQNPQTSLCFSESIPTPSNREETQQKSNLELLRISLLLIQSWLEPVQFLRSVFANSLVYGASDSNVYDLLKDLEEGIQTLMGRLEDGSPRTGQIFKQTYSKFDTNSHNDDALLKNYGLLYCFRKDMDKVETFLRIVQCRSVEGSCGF

Leptin = molecular target: T2, Leptin (human, UniProt P41159 22-167)
T2 construct: Leptin, human, UniProt P41159; see the manufacturer's catalogue number; source: bought: PeproTech (source E. coli)
T2 sequence (P41159 22-167): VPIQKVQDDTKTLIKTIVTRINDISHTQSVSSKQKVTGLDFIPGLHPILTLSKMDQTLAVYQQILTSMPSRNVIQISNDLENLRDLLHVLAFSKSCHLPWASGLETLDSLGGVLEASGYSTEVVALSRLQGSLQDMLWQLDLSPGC

Interleukin-13 = molecular target: T3, Interleukin-13 (human, UniProt P35225 25-146)
T3 construct: Interleukin-13, human, UniProt P35225; see the manufacturer's catalogue number; also called IL-13; source: bought: PeproTech (source E. coli)
T3 sequence (P35225 25-146): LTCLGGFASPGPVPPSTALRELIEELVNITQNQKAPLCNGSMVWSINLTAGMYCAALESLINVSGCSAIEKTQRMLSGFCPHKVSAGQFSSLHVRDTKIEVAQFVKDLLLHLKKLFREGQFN

Interleukin-15 = molecular target: T4, Interleukin-15 (human, UniProt P40933 49-162)
T4 construct: Interleukin-15, human, UniProt P40933; see the manufacturer's catalogue number; also called IL-15; source: bought: PeproTech (source E. coli)
T4 sequence (P40933 49-162): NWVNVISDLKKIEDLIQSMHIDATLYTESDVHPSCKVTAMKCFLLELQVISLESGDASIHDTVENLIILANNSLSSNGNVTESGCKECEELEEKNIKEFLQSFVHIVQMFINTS

Interleukin-27 = molecular target: T5, Interleukin-27 (human, UniProt Q8NEV9 29-243; Q14213 21-229)
T5 construct: the chain used for the SCOP family assignment; also called IL-27; source: bought: PeproTech (source HEK293)
T5 sequence (looked up) 1: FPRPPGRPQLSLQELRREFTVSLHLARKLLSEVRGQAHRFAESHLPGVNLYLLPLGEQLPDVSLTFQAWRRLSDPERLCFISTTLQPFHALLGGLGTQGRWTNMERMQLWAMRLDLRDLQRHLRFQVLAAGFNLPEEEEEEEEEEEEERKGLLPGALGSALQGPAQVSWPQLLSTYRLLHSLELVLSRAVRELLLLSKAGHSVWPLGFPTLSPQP
T5 sequence (looked up) 2: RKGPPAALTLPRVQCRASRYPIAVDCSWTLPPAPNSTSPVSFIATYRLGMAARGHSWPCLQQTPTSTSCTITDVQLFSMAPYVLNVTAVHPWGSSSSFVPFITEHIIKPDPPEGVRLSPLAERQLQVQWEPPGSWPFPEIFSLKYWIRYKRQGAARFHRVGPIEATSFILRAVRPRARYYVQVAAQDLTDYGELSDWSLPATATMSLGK

Interleukin-35 = molecular target: T6, Interleukin-35 (human, UniProt P29459 23-219; Q14213 21-229)
T6 construct: the chain used for the SCOP family assignment; also called IL-35; source: bought: PeproTech (source HEK293)
T6 sequence (looked up) 1: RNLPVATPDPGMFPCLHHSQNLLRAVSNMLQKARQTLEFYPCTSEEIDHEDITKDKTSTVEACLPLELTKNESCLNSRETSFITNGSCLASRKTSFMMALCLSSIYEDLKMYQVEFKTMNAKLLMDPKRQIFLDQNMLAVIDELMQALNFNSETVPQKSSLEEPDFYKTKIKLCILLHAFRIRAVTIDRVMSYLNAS
T6 sequence (looked up) 2: T5 sequence (looked up) 2

[1] = molecular target: T7, Granulocyte-macrophage colony-stimulating factor (human, UniProt P04141 18-144)
T7 construct: Granulocyte-macrophage colony-stimulating factor, human, UniProt P04141; see the manufacturer's catalogue number; also called GM-CSF; source: bought: PeproTech (source E. coli)
T7 sequence (P04141 18-144): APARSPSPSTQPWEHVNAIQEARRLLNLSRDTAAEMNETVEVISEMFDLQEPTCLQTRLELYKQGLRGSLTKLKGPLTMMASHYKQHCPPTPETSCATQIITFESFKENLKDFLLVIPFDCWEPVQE

Kd (Somatotropin): > 100 µM | Kd (Leptin): > 100 µM | Kd (Interleukin-13): > 100 µM | Kd (Interleukin-15): > 100 µM
B1: Human S100P mutant Δ42–47 (lacks PGFLQS sequence in the 'hinge') (natural protein)
chain: MTELETAMGMIIDVFSRYSGSEGSTQTLTKGELKVLMEKELGKDKDAVDKLLKDLDANGDAQVDFSEFIVFVAAITSACHKYFEKAGLK
notes: S100P protein, human, recombinant, with residues 42-47 (PGFLQS) deleted; source: E. coli, prepared as previously described [28]

Kd1 (heterogeneous ligand model, population 1) (Interleukin-27): 859 nM | Kd2 (heterogeneous ligand model, population 2) (Interleukin-27): 1.69 µM | kd1 (heterogeneous ligand model, population 1) (Interleukin-27): 0.00994 s⁻¹ | kd2 (heterogeneous ligand model, population 2) (Interleukin-27): 0.000357 s⁻¹ | Kd1 (heterogeneous ligand model, population 1) (Interleukin-35): 96.2 nM | Kd2 (heterogeneous ligand model, population 2) (Interleukin-35): 255 nM | kd1 (heterogeneous ligand model, population 1) (Interleukin-35): 0.000531 s⁻¹ | kd2 (heterogeneous ligand model, population 2) (Interleukin-35): 0.012 s⁻¹ | Kd1 (heterogeneous ligand model, population 1) [1]: 245 nM | Kd2 (heterogeneous ligand model, population 2) [1]: 450 nM | kd1 (heterogeneous ligand model, population 1) [1]: 0.00113 s⁻¹ | kd2 (heterogeneous ligand model, population 2) [1]: 0.0672 s⁻¹
B2: Human S100P protein (recombinant, Ca^2+-loaded) (natural protein)
chain: MTELETAMGMIIDVFSRYSGSEGSTQTLTKGELKVLMEKELPGFLQSGKDKDAVDKLLKDLDANGDAQVDFSEFIVFVAAITSACHKYFEKAGLK
notes: S100P protein, human, recombinant; probably the whole 95-residue protein (surmise); also called wild-type S100P; WT S100P; source: E. coli, prepared as previously described [28]

Kd1 (heterogeneous ligand model, population 1) (Somatotropin): 29.2 µM | Kd2 (heterogeneous ligand model, population 2; column head printed as Kd1) (Somatotropin): 138 µM | Kd1 (heterogeneous ligand model, population 1) (Leptin): 4.37 µM | Kd2 (heterogeneous ligand model, population 2; column head printed as Kd1) (Leptin): 35.7 µM | Kd (Interleukin-13): > 100 µM | Kd1 (heterogeneous ligand model, population 1) (Interleukin-15): 157 nM | Kd2 (heterogeneous ligand model, population 2; column head printed as Kd1) (Interleukin-15): 283 nM
B3: Human S100P mutant F89A (natural protein)
chain: B2 chain with F89A
notes: S100P protein, human, recombinant, with F89A; source: E. coli, prepared as previously described [28]
